Key:
Type in all cases: cell-based
[1] = test system: mouse tracheal epithelial (MTE) cells; assay: Extracellular glutamate in cell culture supernatant of MTE cells; conditions: direct administration of recombinant protein to MTE cells
Description: A regulator of GSH homeostasis is the transporter system xC-, which exports glutamate and concomitantly imports cystine in a 1:1 ratio. Once inside the cells, cystine is reduced to two cysteines, the latter being the rate limiting amino acid required for GSH synthesis. These relationships were examined further. […] To address whether IL1B-induced increases in GSH are system xC- dependent, two system xC- inhibitors, erastin (Er) and sulfasalazine (SAS) were used. Cells were pretreated for one hour, followed by IL1B treatment for 24 hours. Then, GSH levels were measured in cells exposed to increasing doses of Er or SAS (FIG. 2G). Extracellular glutamate levels in cell culture supernatant of cells pretreated with 0.5 micromolar Er (left) or 100 micromolar SAS (right) for 1 hour before IL1B stimulation were also measured (FIG. 2H). […] System xC- inhibition is known to induce ferroptosis, an iron-dependent mode of cell death characterized by increased lipid peroxidation. However, no changes in cell viability using erastin (5 micromolar) or sulfasalazine (500 micromolar) were detected (FIG. 2I; P-value*<0.05, ***<0.001, ****<0.0001).
Primary mouse tracheal epithelial (MTE) cells were isolated from C57BL/6NJ wild-type or C57BL6/NJ mice lacking Glrx1 gene and cultured. Cells were grown on collagen coated plastic plates or transwell inserts with media change every 2 days until confluency. For interleukin 1B (IL1B) treatment: cells were incubated in plain Dulbecco's Modified Eagle Medium (DMEM): F12 media containing 6 mM glucose and 2 mM glutamine overnight followed by stimulation with 10 ng/ml IL1B or 0.1% bovine serum albumin (BSA) in phosphate buffered saline (PBS) (vehicle control) for 24 hours. Treatment with crastin, sulfasalazine or BSO occurred 1 hour before IL1B stimulation. Media and cells were collected for further analysis. For growing H522 and OTUB1-CRISPR-H522 cells: Roswell Park Memorial Institute (RPMI) media supplemented with 10% fetal bovine serum (FBS) and 1% pen/strep was used to grow the cells. Plasmid over-expression and OTUB1 knock-down experiments were done when cells were 60-70% confluent.
Glutamate in media was measured using Biovision kit following manufacturer's protocol.

[2] = test system: mouse tracheal epithelial (MTE) cells; assay: Total PSSG in MTE cells treated with recombinant GLRX; conditions: direct administration of recombinant protein to MTE cells
Protocol: OTUB1 was one of the PSSG targets detected in IL1B-stimulated epithelial cells raising the possibility that S-glutathionylation of OTUB1 affects the stability of SLC7A11. To investigate this, immunoprecipitation of GSH followed by Western Blotting of OTUB1 in MTE cells treated with vehicle or IL1B was performed. Dithiothreitol (DTT) was incubated with cell lysates prior to immunoprecipitation as a negative control. OTUB1 levels from whole cell lysates were used as the input control. Increases in OTUB1 S-glutathionylation (OTUB1-SSG) in response to IL1B were observed, with further increases occurring in cells lacking Glrx (FIG. 4G), consistent with the role of GLRX as a deglutathionylating enzyme. Western blots were performed using cells treated with the WT- or C23S-mutant GLRX recombinant protein to examine the presence of glutaredoxin (FIG. 4H) and total PSSG (FIG. 4I) (P-value*<0.05, **<0.01, ***<0.001, ****<0.0001). […] Glutathione was evaluated in MTE cells treated with recombinant WT- or C23S-mutant GLRX (FIG. 4J) and glutamate in cell culture supernatant of MTE cells treated with WT or the C23S mutant GLRX was also evaluated (FIG. 4K). […]
Cell lysates were prepared in 100 mM potassium phosphate buffer containing 0.6% sulfosalicylic acid, 1 mM ethylenediaminetetraacetic acid (EDTA) and 0.01% triton-x-100. […] Kinetic absorbance was measured every minute at 412 nm for 20 minutes. […]

human LUAD organoids = assay: Human LUAD organoid viability / cisplatin-induced killing
Description: To date, the first line therapy for advanced KRAS-mutant lung adenocarcinoma (LUAD) consists of platinum-based chemotherapy in combination with the immune checkpoint inhibitor, pembrolizumab, or pembrolizumab alone in patients whose tumors have PD-L1 expression equal or greater than 50%. […] However, tumor resistance to platinum and toxicity is limited in its effectiveness, necessitating the development of strategies to increase sensitivity to cisplatin-induced killing and increase responsiveness to immune checkpoint inhibitors. Increases in GSH contribute to resistance of cisplatin-induced killing. In one study we administered 20 μg/ml of GLRX to human LUAD organoids in the presence or absence of cisplatin.

H522 cells = assay: Synergy of GLRX and cisplatin in killing of H522 cells (Synergy Finder); conditions: Chou-Talalay method (Synergy Finder)
SLC7A11 = SLC7A11 levels in H522 LUAD cells; conditions: administration of GLRX to H522 LUAD cells
Protocol: Bio-Rad DC protein estimation kit was used to determine protein concentration in cell lysates. Equal amounts of proteins were resolved using sodium dodecyl sulfate (SDS)-polyacrylamide gel electrophoresis and transferred to polyvinylidene difluoride (PVDF) membranes, blocked in 5% BSA and incubated with primary antibodies overnight. Membranes were subsequently incubated with peroxidase-conjugated secondary antibodies for one hour and then visualized using chemiluminescence.

B1: GLRX: recombinant wild-type glutaredoxin protein, deglutathionylating enzyme, administered directly to cells (protein, UniProt P35754 2-106, looked up)
Glutaredoxin-1: AQEFVNCKIQPGKVVVFIKPTCPYCRRAQEILSQLPIKQGLLEFVDITATNHTNEIQDYLQQLTGARTVPRVFIGKDCIGGCSDLVSLQQSGELLTRLKQIGALQ
extracellular glutamate [1]: decreased | overall PSSG [2]: decreased | viability of human LUAD organoids (human LUAD organoids; 20 μg/ml GLRX alone): did not affect | sensitivity to cisplatin-induced tumor organoid killing (human LUAD organoids; 20 μg/ml GLRX with cisplatin, compared to cisplatin only): strongly increased | synergy with cisplatin (ZIP Score) (H522 cells): > 10 | SLC7A11 levels (SLC7A11): decreased

Source: patent publication US20260027190A1, “OVARIAN TUMOR DEUBIQUITINASE OXIDATION AND USES THEREOF” (The University of Vermont and State Agricultural College, priority 2022, published 2026)
